Results on 94 variants are retold here after the supplement of paper PMC10567573.

First the molecules themselves.
B1: ZNF263 (parent)
chain: HLTRHQRTHTGEKPYKCTLCGENF
B2: BTBD1 (parent)
chain: IVGFGLYGSIHGPTDYQVNIQIIE
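Also: lentivirally expressed fusions sorted by FACS into six bins by GFP to DsRed ratio, PSI derived from sequencing read proportions per bin multiplied by bin number.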

The variants in the first data set derive from B1. Kind of data set: protein stability index of a GFP-peptide fusion (GPS, HEK-293T) (PSI 1-6); higher = more stable. The note with it: c terminus: a fixed tail appended.
For the variant HLTIHQRTHTGEKPYKCTLCGENF [R4I], the protein stability index is 2.61. The same measure, in the same setting: then HLTDHQRTHTGEKPYKCTLCGENF [R4D], with 4.07; and HLTQHQRTHTGEKPYKCTLCGENF [R4Q], with 3.32. Regarding HLTAHQRTHTGEKPYKCTLCGENF [R4A], the protein stability index was determined as 3.43. Still for that read-out and setting: then HLTLHQRTHTGEKPYKCTLCGENF [R4L], with 3.22. On the same count and under the same terms, then HLTHHQRTHTGEKPYKCTLCGENF [R4H], with 3.53; and HLTEHQRTHTGEKPYKCTLCGENF [R4E], with 3.7. The same measure, in the same setting: then HLTWHQRTHTGEKPYKCTLCGENF [R4W], with 2.5; and HLTPHQRTHTGEKPYKCTLCGENF [R4P], with 3.76; and HLTGHQRTHTGEKPYKCTLCGENF [R4G], with 2.38. As to HLTSHQRTHTGEKPYKCTLCGENF [R4S], the protein stability index stood at 3.37. On the same count and under the same terms, then HLTKHQRTHTGEKPYKCTLCGENF [R4K], with 3.47; and HLTTHQRTHTGEKPYKCTLCGENF [R4T], with 3.1; and HLTVHQRTHTGEKPYKCTLCGENF [R4V], with 3.35. On the same count and under the same terms, then HLTNHQRTHTGEKPYKCTLCGENF [R4N], with 3.09; and HLTCHQRTHTGEKPYKCTLCGENF [R4C], with 3.67; and HLTYHQRTHTGEKPYKCTLCGENF [R4Y], with 2.76. With HLTRHFRTHTGEKPYKCTLCGENF [Q6F], the protein stability index was found to be 2.08. For HLTRHWRTHTGEKPYKCTLCGENF [Q6W], the protein stability index was 2.04. On the same count and under the same terms, then HLTRHCRTHTGEKPYKCTLCGENF [Q6C], with 3.36; and HLTRHRRTHTGEKPYKCTLCGENF [Q6R], with 3.19; and HLTRHTRTHTGEKPYKCTLCGENF [Q6T], with 2.75. On the same count and under the same terms, then HLTRHPRTHTGEKPYKCTLCGENF [Q6P], with 2.69; and HLTRHVRTHTGEKPYKCTLCGENF [Q6V], with 2.29; and HLTRHDRTHTGEKPYKCTLCGENF [Q6D], with 2.84. The same measure, in the same setting: then HLTRHKRTHTGEKPYKCTLCGENF [Q6K], with 2.94. For the variant HLTRHIRTHTGEKPYKCTLCGENF [Q6I], the protein stability index was found to be 2.22. Take HLTRHYRTHTGEKPYKCTLCGENF [Q6Y]: the protein stability index is 2.7. Same read-out and setting: then HLTRHGRTHTGEKPYKCTLCGENF [Q6G], with 2.85; and HLTRHSRTHTGEKPYKCTLCGENF [Q6S], with 3.68; and HLTRHARTHTGEKPYKCTLCGENF [Q6A], with 2.93. Still for that read-out and setting: then HLTRHLRTHTGEKPYKCTLCGENF [Q6L], with 2.61; and HLTRHERTHTGEKPYKCTLCGENF [Q6E], with 2.71. Still for that read-out and setting: then HLTRHNRTHTGEKPYKCTLCGENF [Q6N], with 2.46. As to HLTRHHRTHTGEKPYKCTLCGENF [Q6H], the protein stability index came out at 3.28. Same read-out and setting: then HLTRHMRTHTGEKPYKCTLCGENF [Q6M], with 2.6.

On to HLTRSQRTHTGEKPYKCTLCGENF [H5S], for which the protein stability index came out at 3.2. In the case of HLTRMQRTHTGEKPYKCTLCGENF [H5M], the protein stability index was 2.28. Turning to HLTRIQRTHTGEKPYKCTLCGENF [H5I], the protein stability index amounted to 2.11. On the same count and under the same terms, then HLTRGQRTHTGEKPYKCTLCGENF [H5G], with 3.

Take HLTREQRTHTGEKPYKCTLCGENF [H5E]: the protein stability index came out at 2.96. Still for that read-out and setting: then HLTRYQRTHTGEKPYKCTLCGENF [H5Y], with 2.39; and HLTRRQRTHTGEKPYKCTLCGENF [H5R], with 2.74; and HLTRAQRTHTGEKPYKCTLCGENF [H5A], with 2.69. Take HLTRVQRTHTGEKPYKCTLCGENF [H5V]: the protein stability index turned out to be 2.27. The same measure, in the same setting: then HLTRTQRTHTGEKPYKCTLCGENF [H5T], with 2.24; and HLTRWQRTHTGEKPYKCTLCGENF [H5W], with 2.31. The same measure, in the same setting: then HLTRCQRTHTGEKPYKCTLCGENF [H5C], with 3.92; and HLTRNQRTHTGEKPYKCTLCGENF [H5N], with 2.34.

As to HLTRKQRTHTGEKPYKCTLCGENF [H5K], the protein stability index worked out at 2.98. Regarding HLTRQQRTHTGEKPYKCTLCGENF [H5Q], the protein stability index stood at 3.08. For the variant HLTRPQRTHTGEKPYKCTLCGENF [H5P], the protein stability index is 2.91.

With HLTRDQRTHTGEKPYKCTLCGENF [H5D], the protein stability index was 2.56. HLTRFQRTHTGEKPYKCTLCGENF [H5F]: the protein stability index came out at 2.47. Still for that read-out and setting: then HLTRLQRTHTGEKPYKCTLCGENF [H5L], with 2.09.

Turning to ILTRHQRTHTGEKPYKCTLCGENF [H1I], the protein stability index turned out to be 2.19. For the variant KLTRHQRTHTGEKPYKCTLCGENF [H1K], the protein stability index was 2.74.

Turning to YLTRHQRTHTGEKPYKCTLCGENF [H1Y], the protein stability index was found to be 2.23. On the same count and under the same terms, then GLTRHQRTHTGEKPYKCTLCGENF [H1G], with 2.19; and NLTRHQRTHTGEKPYKCTLCGENF [H1N], with 3.22; and MLTRHQRTHTGEKPYKCTLCGENF [H1M], with 3.02.

As to CLTRHQRTHTGEKPYKCTLCGENF [H1C], the protein stability index was 4.02. As for LLTRHQRTHTGEKPYKCTLCGENF [H1L], the protein stability index came to 3.11. The same measure, in the same setting: then WLTRHQRTHTGEKPYKCTLCGENF [H1W], with 2.22; and TLTRHQRTHTGEKPYKCTLCGENF [H1T], with 2.56. For the variant ELTRHQRTHTGEKPYKCTLCGENF [H1E], the protein stability index worked out at 2.97. On to RLTRHQRTHTGEKPYKCTLCGENF [H1R], for which the protein stability index came to 3.02.

Take QLTRHQRTHTGEKPYKCTLCGENF [H1Q]: the protein stability index came out at 3.06. Regarding VLTRHQRTHTGEKPYKCTLCGENF [H1V], the protein stability index was found to be 2.46. Take FLTRHQRTHTGEKPYKCTLCGENF [H1F]: the protein stability index turned out to be 1.36. The same measure, in the same setting: then SLTRHQRTHTGEKPYKCTLCGENF [H1S], with 3.12; and PLTRHQRTHTGEKPYKCTLCGENF [H1P], with 4.14. On the same count and under the same terms, then ALTRHQRTHTGEKPYKCTLCGENF [H1A], with 3.07; and DLTRHQRTHTGEKPYKCTLCGENF [H1D], with 2.97.

Another data set covers variants of B2. The data set is described as above. The conditions noted are these: c terminus: a fixed tail appended.
As for IVGFGLYGSIHGPTDYQVNIQISE [I23S], the protein stability index is 2.29. In the case of IVGFGLYGSIHGPTDYQVNIQIRE [I23R], the protein stability index was determined as 2.12. Same read-out and setting: then IVGFGLYGSIHGPTDYQVNIQIYE [I23Y], with 2.12.

Turning to IVGFGLYGSIHGPTDYQVNIQIVE [I23V], the protein stability index is 2.82. The same measure, in the same setting: then IVGFGLYGSIHGPTDYQVNIQIPE [I23P], with 2.21; and IVGFGLYGSIHGPTDYQVNIQIWE [I23W], with 1.57. Still for that read-out and setting: then IVGFGLYGSIHGPTDYQVNIQINE [I23N], with 3.56. As to IVGFGLYGSIHGPTDYQVNIQIIA [E24A], the protein stability index worked out at 2.41.

Regarding IVGFGLYGSIHGPTDYQVNIQIIH [E24H], the protein stability index is 2.33. The same measure, in the same setting: then IVGFGLYGSIHGPTDYQVNIQIIV [E24V], with 2.95; and IVGFGLYGSIHGPTDYQVNIQIIP [E24P], with 2.89; and IVGFGLYGSIHGPTDYQVNIQIIY [E24Y], with 2.02.

Regarding IVGFGLYGSIHGPTDYQVNIQIIS [E24S], the protein stability index is 2.78.

As to IVGFGLYGSIHGPTDYQVNIQIII [E24I], the protein stability index turned out to be 2.08. On the same count and under the same terms, then IVGFGLYGSIHGPTDYQVNIQIIW [E24W], with 3.21. On the same count and under the same terms, then IVGFGLYGSIHGPTDYQVNIQIIQ [E24Q], with 2.62; and IVGFGLYGSIHGPTDYQVNIQIIL [E24L], with 4.16; and IVGFGLYGSIHGPTDYQVNIQIIK [E24K], with 2.36. The same measure, in the same setting: then IVGFGLYGSIHGPTDYQVNIQIIT [E24T], with 3.78; and IVGFGLYGSIHGPTDYQVNIQIIF [E24F], with 1.72.
